The values below come from PMC5499804.

Numbering of substitutions follows the chain as printed.

Holding throughout (assay): MST
Series [1] concerns the target T1, DDX21 m4 (Homo sapiens, UniProt Q9NR30 1-783, P754Y;R755E;Q757I;R758Q).
T1 sequence: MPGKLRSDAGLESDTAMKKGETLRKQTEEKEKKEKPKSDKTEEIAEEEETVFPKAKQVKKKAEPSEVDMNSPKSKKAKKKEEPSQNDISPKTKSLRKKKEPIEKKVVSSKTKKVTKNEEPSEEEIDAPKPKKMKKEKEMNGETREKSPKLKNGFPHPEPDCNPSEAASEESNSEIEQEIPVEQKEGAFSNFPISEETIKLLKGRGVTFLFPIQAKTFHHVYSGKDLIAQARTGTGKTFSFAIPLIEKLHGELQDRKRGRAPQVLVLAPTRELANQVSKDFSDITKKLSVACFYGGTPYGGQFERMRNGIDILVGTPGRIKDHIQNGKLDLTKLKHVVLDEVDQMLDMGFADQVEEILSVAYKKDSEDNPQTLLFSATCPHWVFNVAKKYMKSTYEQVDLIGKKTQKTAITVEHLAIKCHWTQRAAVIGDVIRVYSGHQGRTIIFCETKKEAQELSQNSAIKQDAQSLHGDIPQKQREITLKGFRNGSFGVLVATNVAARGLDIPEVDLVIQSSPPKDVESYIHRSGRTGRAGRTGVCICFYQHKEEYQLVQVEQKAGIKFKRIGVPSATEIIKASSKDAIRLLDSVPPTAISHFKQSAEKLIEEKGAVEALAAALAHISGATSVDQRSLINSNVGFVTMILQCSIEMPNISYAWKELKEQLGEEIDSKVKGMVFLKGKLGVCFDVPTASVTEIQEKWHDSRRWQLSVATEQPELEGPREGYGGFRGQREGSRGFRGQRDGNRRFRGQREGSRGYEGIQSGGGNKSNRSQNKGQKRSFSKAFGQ

Series [2] deals with T2, DDX21(574-783) (Homo sapiens, UniProt Q9NR30 574-783).
T2 sequence: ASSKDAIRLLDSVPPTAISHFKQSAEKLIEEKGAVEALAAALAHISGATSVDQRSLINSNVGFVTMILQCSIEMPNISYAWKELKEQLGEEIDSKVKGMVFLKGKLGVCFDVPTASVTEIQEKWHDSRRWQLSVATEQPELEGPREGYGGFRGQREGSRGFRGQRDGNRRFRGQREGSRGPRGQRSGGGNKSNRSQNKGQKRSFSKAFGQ

Series [3] concerns the target T3, DDX21 full length (1-783) (Homo sapiens, UniProt Q9NR30 1-783).
T3 sequence: T1 sequence with Y754P, E755R, I757Q, Q758R

Series [4] has as its target T2, DDX21(574-783). The source holds these as a separate data set.

AGGGUGGGCCUGGGAGGGGUGGUGGCCAU (structured_RNA) [hTR(10-43)]: the binding result in series [1] was “no binding”. Also, the Kd in series [2] was determined as 149 ± 10 nM; in series [3], 324 ± 7 nM.

GUUGGGGCGGGCGUUGGGUUUGGGGGGACG (structured_RNA) [Q2] came in with a Kd in series [3] of 10 ± 0.7 nM.

Take GUUGCGCCGCGCGUUGCGUUUGCGCGCACG (ssRNA) [Q2-mutant]: the binding signal in series [4] is ~1000 fold less affinity than Q2 wild type. Further, the binding result in series [1] and in series [3] was “no binding” throughout.
